The target of assay [1] is ACKR3-Rluc3 (human) (UniProt P25106).
A further assay concerns the target CXCR4-Rluc3 (human) (UniProt P61073).
Assay [2] concerns the target SNAP-ACKR3 (human) (UniProt P25106).
The target in assay [3] is ACKR3-Rluc3 (human) (UniProt P25106). This is another data set of the same source.
For assay [4], the target named is SNAP-ACKR3 (human) (UniProt P25106). This is another data set of the same source.

UniProt P61073, sequence (P61073 whole entry): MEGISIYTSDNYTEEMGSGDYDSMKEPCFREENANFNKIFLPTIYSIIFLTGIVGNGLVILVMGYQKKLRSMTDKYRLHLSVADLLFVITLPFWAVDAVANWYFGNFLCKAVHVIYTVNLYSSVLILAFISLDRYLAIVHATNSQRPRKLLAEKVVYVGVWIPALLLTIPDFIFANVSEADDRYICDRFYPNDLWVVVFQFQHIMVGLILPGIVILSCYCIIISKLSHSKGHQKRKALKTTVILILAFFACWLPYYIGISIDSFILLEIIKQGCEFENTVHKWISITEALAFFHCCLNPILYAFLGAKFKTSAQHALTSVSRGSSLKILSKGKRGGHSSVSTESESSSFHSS

B1: 3xHA-RAMP3 (natural protein)
chain: RAGGCNETGMLERLPLCGKAFADMMGKVDVWKWCNLSEFIVYYESFTNCTEMEANVVGCYWPNPLAQGFITGIHRQFFSNCTVDRVHLEDPPDEVLIPLIVIPVVLTVAMAGLVVWRSKRTDTLL
Consider B1, for which the decrease of the CXCL12-induced Emax of β-arrestin recruitment to ACKR3 on co-expression with RAMP3 (BRET) in the assay with ACKR3-Rluc3 (human) [1] came out at 40%. The same molecule had a reduction of the efficacy (Emax) of CXCL12-induced β-arrestin recruitment to CXCR4 by RAMP3 (BRET) with CXCR4-Rluc3 (human) of 18.5%. In addition, in the assay with SNAP-ACKR3 (human) [2], the ACKR3 remaining at the surface after CXCL12-induced internalization when HA-RAMP3 was present (∼53% without it; SNAP surface labelling) stood at 65%. Further, in the assay with ACKR3-Rluc3 (human) [3], the decrease of the efficacy of CXCL11-induced β-arrestin recruitment to ACKR3 with HA-RAMP3 (BRET) was 47%, the decrease of the efficacy of TC14012-induced β-arrestin recruitment to ACKR3 with HA-RAMP3 (BRET) came out at 39% and the decrease of the efficacy of VUF11207-induced β-arrestin recruitment to ACKR3 with HA-RAMP3 (BRET) worked out at 30%. In the assay with SNAP-ACKR3 (human) [4], this molecule gave an attenuation of the purely ligand-induced (CXCL12) internalization of ACKR3 by RAMP3 (DERET) of 50% and a reduction of total ACKR3 internalization in response to CXCL12 (100 nM) on co-expression of HA-RAMP3, compared to ACKR3 alone (DERET, AUC 90 min) of 25%.

Source of the values: article PMC11760809.
